From patent US20220406376A1 (MacroGenics, published 2022)

B1: DART-3 (bispecific antibody)
chain 1: not shown
chain 2: DIQMTQSPSTLSASVGDRVTITCRASQSVGYMHWYQQKPGKAPKLLIYDTSKLASGVPSRFSGSGSGTEFTLTISSLQPDDFATYYCFQGSGYPFTFGGGTKLEIKGGGSGGGGQVQLVQSGAEVKKPGASVKVSCKASGYTFTNYGMNWVRQAPGQGLEWMGWINTNIGEPTYTEEFKGRVTMTRDTSISTAYMELSRLRSDDTAVYYCARDDGYGNRVSYWGQGTLVTVSSGGCGGGKVAACKEKVAALKEKVAALKEKVAALKE
notes: also called HER2×RSV control molecule; HER2/neu×RSV control molecule
B2: DART-6 (bispecific antibody, human IgG1, kappa, L234A L235A)
heavy: QVTLRESGPALVKPTQTLTLTCTFSGFSLSTSGMSVGWIRQPPGKALEWLADIWWDDKKDYNPSLKSRLTISKDTSKNQVVLKVTNMDPADTATYYCARSMITNWYFDVWGAGTTVTVSSASTKGPSVFPLAPSSKSTSGGTAALGCLVKDYFPEPVTVSWNSGALTSGVHTFPAVLQSSGLYSLSSVVTVPSSSLGTQTYICNVNHKPSNTKVDKRVEPKSCDKTHTCPPCPAPEAAGGPSVFLFPPKPKDTLMISRTPEVTCVVVDVSHEDPEVKFNWYVDGVEVHNAKTKPREEQYNSTYRVVSVLTVLHQDWLNGKEYKCKVSNKALPAPIEKTISKAKGQPREPQVYTLPPSREEMTKNQVSLSCAVKGFYPSDIAVEWESNGQPENNYKTTPPVLDSDGSFFLVSKLTVDKSRWQQGNVFSCSVMHEALHNRYTQKSLSLSPGK
light: DIQMTQSPSTLSASVGDRVTITCRASQSVGYMHWYQQKPGKAPKLLIYDTSKLASGVPSRFSGSGSGTEFTLTISSLQPDDFATYYCFQGSGYPFTFGGGTKLEIKRTVAAPSVFIFPPSDEQLKSGTASVVCLLNNFYPREAKVQWKVDNALQSGNSQESVTEQDSKDSTYSLSSTLTLSKADYEKHKVYACEVTHQGLSSPVTKSFNRGEC
chain 1: QVTLRESGPALVKPTQTLTLTCTFSGFSLSTSGMSVGWIRQPPGKALEWLADIWWDDKKDYNPSLKSRLTISKDTSKNQVVLKVTNMDPADTATYYCARSMITNWYFDVWGAGTTVTVSSASTKGPSVFPLAPSSKSTSGGTAALGCLVKDYFPEPVTVSWNSGALTSGVHTFPAVLQSSGLYSLSSVVTVPSSSLGTQTYICNVNHKPSNTKVDKRVEPKSCDKTHTCPPCPAPEAAGGPSVFLFPPKPKDTLMISRTPEVTCVVVDVSHEDPEVKFNWYVDGVEVHNAKTKPREEQYNSTYRVVSVLTVLHQDWLNGKEYKCKVSNKALPAPIEKTISKAKGQPREPQVYTLPPSREEMTKNQVSLWCLVKGFYPSDIAVEWESNGQPENNYKTTPPVLDSDGSFFLYSKLTVDKSRWQQGNVFSCSVMHEALHNHYTQKSLSLSPGGGGSGGGSGGGDIQMTQTTSSLSASLGDRVTISCRPSQDISNYLNWYQQKPDGTVKLLIYYTSRLRSGVPSRFSGSGSGTDYSLTISNLEQEDIATYFCQQGDTLPYTFGGGTKLEIKGGGSGGGGQVQLQQPGAELVRPGASVKLSCKASGYTFTSYWINWVKQRPGQGLEWIGNIYPSDSYTNYNQKFKDKATLTVDKSSSTAYMQLSSPTSEDSAVYYCTRDYGSSYSFDYWGQGTTLTVSSGGCGGGEVAALEKEVAALEKEVAALEKEVAALEK
chain 2: DIQMTQTTSSLSASLGDRVTISCRPSQDISNYLNWYQQKPDGTVKLLIYYTSRLRSGVPSRFSGSGSGTDYSLTISNLEQEDIATYFCQQGDTLPYTFGGGTKLEIKGGGSGGGGQVQLQQPGAELVRPGASVKLSCKASGYTFTSYWINWVKQRPGQGLEWIGNIYPSDSYTNYNQKFKDKATLTVDKSSSTAYMQLSSPTSEDSAVYYCTRDYGSSYSFDYWGQGTTLTVSSGGCGGGKVAALKEKVAALKEKVAALKEKVAALKE
notes: also called RSV×CD137 control molecule; CD137×RSV control molecule

Experiments:
[1] = biological target: T1, HER2/neu on the surface of target cells (N87, JIMT-1, MCF-7, MDA-MB231) (UniProt P04626 23-1255, limits assumed); test: flow cytometry on JIMT-1 cells, anti-hFc APC MFI
T1 construct: whole, on cells
Procedure: (§1) CD137×TA Binding Molecules, DART-B, DART-D, DART-G and the control molecules DART-3 and DART-6 were additionally evaluated for their ability to bind to HER2/neu expressed on N87 cells (FIG. 13A) and JIMT-1 cells (FIG. 13B). For such evaluation, 100 μL of HER2/neu expressing target cells (1.0×1⁰⁶ cells/mL) and 100 μL of serially diluted (5- or 10-fold dilutions) test article (bispecific diabody) were added to each well of microtiter assay plate(s), mixed and incubated at RT for 45 min. The cells were washed with FACS Buffer and secondary antibody (anti-human-Fc region-APC) was then added to each well; mixed and incubated at RT for 30 min. Cells were washed and resuspended in 100 μL FACS Buffer and analyzed by flow cytometry (BD LSR Fortessa or FACSCanto 11) for cell event collection. Data analysis were performed via FloJo v10.

[2] = biological target: T2, CD137 on the surface of cells (activated human T cells; engineered CHO cells) (human, UniProt Q07011 24-255); test: flow cytometry on activated pan T cells gated CD8, anti-hFc APC MFI
T2 construct: whole, on cells; also called human CD137; cell surface expressed CD137

[3] = biological target: T1, HER2/neu on the surface of target cells …; test: flow cytometry on N87 cells, anti-hFc APC MFI
Procedure: as §1

[4] = biological target: T1, HER2/neu on the surface of target cells …; test: flow cytometry on N87 gastric cancer cells, anti-hFc APC MFI
[5] = biological target: T2, CD137 on the surface of cells …; test: flow cytometry on CD137-expressing CHO cells (CHO/137), anti-hFc APC MFI
[6] = biological target: T2, CD137 on the surface of cells …; test: flow cytometry on activated CD8+ T cells (donor D53781, CD8 FITC), anti-hFc APC MFI
[7] = biological target: T2, CD137 on the surface of cells …; test: flow cytometry on activated CD8+ T cells (CD8 FITC), anti-hFc APC MFI
[8] = biological target: T2, CD137 on the surface of cells …; test: flow cytometry on CD137-expressing CHO cells (CHO/137), anti-hFc APC MFI; remark: listed apart in the source
[9] = biological target: T2, CD137 on the surface of cells …; test: flow cytometry on activated pan T cells gated CD8, anti-hFc APC MFI; remark: listed apart in the source

T2 sequence (Q07011 24-255, change not shown): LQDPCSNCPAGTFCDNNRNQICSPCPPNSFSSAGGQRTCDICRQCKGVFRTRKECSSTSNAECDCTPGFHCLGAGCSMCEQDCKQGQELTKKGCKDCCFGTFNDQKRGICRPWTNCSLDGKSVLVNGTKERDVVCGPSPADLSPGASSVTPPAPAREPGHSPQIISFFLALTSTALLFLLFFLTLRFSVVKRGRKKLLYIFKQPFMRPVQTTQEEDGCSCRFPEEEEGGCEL

Row | Binder | EC50 (read off the curve) [1] [µg/mL] | binding result [2] | EC50 (read off the curve) [3] [µg/mL] | EC50 (read off the curve) [4] [nM] | EC50 (read off the curve) [5] [µg/mL] | EC50 (read off the curve) [6] [µg/mL] | EC50 (read off the curve) [2] [nM] | EC50 (read off the curve) [7] [µg/mL] | EC50 (read off the curve) [8] [µg/mL] | binding result [4] | EC50 (read off the curve) [9] [nM]
1 | B1 | ~0.03 | no binding | ~0.05 | ~0.5 | – | – | – | – | – | – | –
2 | B2 | – | – | – | – | ~0.02 | ~0.02 | ~0.2 | ~0.02 | ~0.02 | no binding | ~0.1
